Assay results taken from patent US10800813 (Bicycle, dated 2020).
Read-outs that look alike come from different tables or passages of the source. Numbered stars: 1 amine (or outer) side, 2 acyl side, 3 side chain; on linkers, the order of the positions; unused ones are H or OH. Bridge positions count the residues as written; N and C are the ends. Square brackets hold non-standard residues; d marks the D form. Ends that are not written are not given here. Phe(4-guanidino) = N=C(N)Nc1ccc(C[C@H](N)C(=O)O)cc1; TBMB = c1c(C[*:1])cc(C[*:3])cc1C[*:2]; NMeR = CN[C@@H](CCCNC(=N)N)C(=O)O; hArg = N=C(N)NCCCC[C@H](N)C(=O)O; Pen = CC(C)(S)[C@H](N)C(=O)O; NMeS = CN[C@@H](CO)C(=O)O; Aze = O=C(O)[C@@H]1CCN1; Abu = CC[C@H](N)C(=O)O; Sar = CNCC(=O)O

Legend:
Rat plasma Kallikrein [1] = target: T1, Rat plasma Kallikrein (rat, UniProt P14272 391-638, limits assumed); test: enzyme inhibition assay; values relative, not absolute
T1 construct: domain: catalytic domain; also called rPK; rat PK
T1 sequence (P14272 391-638 limits assumed): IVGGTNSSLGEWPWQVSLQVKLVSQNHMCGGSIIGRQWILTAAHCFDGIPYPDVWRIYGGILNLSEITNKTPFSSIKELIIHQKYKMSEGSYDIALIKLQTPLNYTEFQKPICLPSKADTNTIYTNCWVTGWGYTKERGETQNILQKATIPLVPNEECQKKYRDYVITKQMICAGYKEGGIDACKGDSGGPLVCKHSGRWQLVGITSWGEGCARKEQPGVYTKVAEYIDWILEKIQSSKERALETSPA

human plasma Kallikrein [2] = target: T2, human plasma Kallikrein (human, UniProt P03952 20-638, limits assumed); test: enzyme inhibition assay
T2 construct: also called hPK; human PK
T2 sequence (P03952 20-638 limits assumed): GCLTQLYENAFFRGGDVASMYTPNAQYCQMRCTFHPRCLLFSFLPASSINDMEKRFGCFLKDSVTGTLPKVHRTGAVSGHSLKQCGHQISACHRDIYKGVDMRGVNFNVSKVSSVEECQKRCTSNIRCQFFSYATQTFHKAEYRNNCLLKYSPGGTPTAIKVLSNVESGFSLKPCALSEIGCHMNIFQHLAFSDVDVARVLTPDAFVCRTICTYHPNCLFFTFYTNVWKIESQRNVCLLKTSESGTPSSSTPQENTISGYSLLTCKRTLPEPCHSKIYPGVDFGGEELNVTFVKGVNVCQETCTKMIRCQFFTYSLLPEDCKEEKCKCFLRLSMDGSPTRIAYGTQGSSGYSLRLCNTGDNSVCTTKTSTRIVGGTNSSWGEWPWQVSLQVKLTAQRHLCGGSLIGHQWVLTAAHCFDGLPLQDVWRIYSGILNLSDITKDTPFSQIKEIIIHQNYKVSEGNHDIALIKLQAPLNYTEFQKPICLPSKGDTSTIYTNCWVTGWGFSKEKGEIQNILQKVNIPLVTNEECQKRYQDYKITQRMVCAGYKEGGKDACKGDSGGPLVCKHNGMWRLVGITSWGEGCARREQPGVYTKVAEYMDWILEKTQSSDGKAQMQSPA

human plasma Kallikrein [3] = target: T2, human plasma Kallikrein; test: enzyme inhibition assay; remark: listed apart in the source
human plasma Kallikrein [4] = target: T2, human plasma Kallikrein; test: enzyme inhibition assay; remark: listed apart in the source
Monkey plasma Kallikrein = target: T3, Monkey plasma Kallikrein (monkey (Macaca mulatta), UniProt A0A1D5Q7U7 391-638); test: enzyme inhibition assay
T3 construct: domain: catalytic domain; also called mPK
T3 sequence (A0A1D5Q7U7 entry or part of it): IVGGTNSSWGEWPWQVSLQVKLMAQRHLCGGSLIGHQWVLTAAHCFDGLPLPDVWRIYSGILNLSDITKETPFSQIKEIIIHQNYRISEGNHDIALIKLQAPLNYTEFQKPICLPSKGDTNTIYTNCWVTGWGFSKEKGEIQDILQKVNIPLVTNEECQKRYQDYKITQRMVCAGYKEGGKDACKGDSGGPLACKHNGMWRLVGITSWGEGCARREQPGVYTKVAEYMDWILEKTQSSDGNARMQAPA

Rat plasma Kallikrein [5] = target: T1, Rat plasma Kallikrein; test: enzyme inhibition assay
human plasma Kallikrein [6] = target: T2, human plasma Kallikrein; test: enzyme inhibition assay; remark: listed apart in the source
human plasma Kallikrein [7] = target: T2, human plasma Kallikrein; test: enzyme inhibition assay; remark: listed apart in the source
human plasma Kallikrein [8] = target: T2, human plasma Kallikrein; test: enzyme inhibition assay; remark: listed apart in the source
Rat plasma Kallikrein [9] = target: T1, Rat plasma Kallikrein; test: enzyme inhibition assay; remark: listed apart in the source
human plasma Kallikrein [10] = target: T2, human plasma Kallikrein; test: enzyme inhibition assay; remark: listed apart in the source
human plasma Kallikrein [11] = target: T2, human plasma Kallikrein; test: enzyme inhibition assay; remark: listed apart in the source
human plasma Kallikrein [12] = target: T2, human plasma Kallikrein; test: enzyme inhibition assay; remark: listed apart in the source
human plasma Kallikrein [13] = target: T2, human plasma Kallikrein; test: enzyme inhibition assay; remark: listed apart in the source
human plasma Kallikrein [14] = target: T2, human plasma Kallikrein; test: enzyme inhibition assay; remark: listed apart in the source

## Ac-CSWPA[hArg]CLHQDLC-NH2 (linker 1-7-13 via TBMB) [Ac-(06-34-18) HomoArg5]
Rat plasma Kallikrein [1]
  IC50: 64 nM

B1: Ac-(06-34-18) Aze3 4GuanPhe5 (peptide)
peptide: Ac-CSW[Aze]A[Phe(4-guanidino)]CLHQDLC-NH2
modifications: linker 1-7-13 via TBMB
SMILES: CC(=O)N[C@H]1CSCc2cc3cc(c2)CSC[C@H](NC(=O)[C@H](Cc2ccc(NC(=N)N)cc2)NC(=O)[C@H](C)NC(=O)[C@@H]2CCN2C(=O)[C@H](Cc2c[nH]c4ccccc24)NC(=O)[C@H](CO)NC1=O)C(=O)N[C@@H](CC(C)C)C(=O)N[C@@H](Cc1c[nH]cn1)C(=O)N[C@@H](CCC(N)=O)C(=O)N[C@@H](CC(=O)O)C(=O)N[C@@H](CC(C)C)C(=O)N[C@H](C(N)=O)CSC3
Human plasma Kallikrein [2]
  Ki: 0.17 nM

B2: Ac-(06-34-18) FPAR (peptide)
peptide: Ac-CSFPARCLHQDLC-NH2
modifications: linker 1-7-13 via TBMB
SMILES: CC(=O)N[C@H]1CSCc2cc3cc(c2)CSC[C@H](NC(=O)[C@H](CCCNC(=N)N)NC(=O)[C@H](C)NC(=O)[C@@H]2CCCN2C(=O)[C@H](Cc2ccccc2)NC(=O)[C@H](CO)NC1=O)C(=O)N[C@@H](CC(C)C)C(=O)N[C@@H](Cc1c[nH]cn1)C(=O)N[C@@H](CCC(N)=O)C(=O)N[C@@H](CC(=O)O)C(=O)N[C@@H](CC(C)C)C(=O)N[C@H](C(N)=O)CSC3
Human plasma Kallikrein [3]
  fold change in Ki against WPAR parent: 40 fold
Human plasma Kallikrein [4]
  Ki: 6.28 nM

B3: Ac-(06-34-18) WPYR (peptide)
peptide: Ac-CSWPYRCLHQDLC-NH2
modifications: linker 1-7-13 via TBMB
SMILES: CC(=O)N[C@H]1CSCc2cc3cc(c2)CSC[C@H](NC(=O)[C@H](CCCNC(=N)N)NC(=O)[C@H](Cc2ccc(O)cc2)NC(=O)[C@@H]2CCCN2C(=O)[C@H](Cc2c[nH]c4ccccc24)NC(=O)[C@H](CO)NC1=O)C(=O)N[C@@H](CC(C)C)C(=O)N[C@@H](Cc1c[nH]cn1)C(=O)N[C@@H](CCC(N)=O)C(=O)N[C@@H](CC(=O)O)C(=O)N[C@@H](CC(C)C)C(=O)N[C@H](C(N)=O)CSC3
Human plasma Kallikrein [4]
  Ki: 0.41 nM

B4: Ac-(06-34-18) WPSR (peptide)
peptide: Ac-CSWPSRCLHQDLC-NH2
modifications: linker 1-7-13 via TBMB
SMILES: CC(=O)N[C@H]1CSCc2cc3cc(c2)CSC[C@H](NC(=O)[C@H](CCCNC(=N)N)NC(=O)[C@H](CO)NC(=O)[C@@H]2CCCN2C(=O)[C@H](Cc2c[nH]c4ccccc24)NC(=O)[C@H](CO)NC1=O)C(=O)N[C@@H](CC(C)C)C(=O)N[C@@H](Cc1c[nH]cn1)C(=O)N[C@@H](CCC(N)=O)C(=O)N[C@@H](CC(=O)O)C(=O)N[C@@H](CC(C)C)C(=O)N[C@H](C(N)=O)CSC3
Human plasma Kallikrein [4]
  Ki: 0.44 nM

## ACRWPARCTHQNYCA (linker 2-8-14 via TBMB; not fully specified (N-terminus, C-terminus), also called PK106) [06-54 (2A2)]
Monkey plasma Kallikrein
  Ki: 6 nM
Rat plasma Kallikrein [5]
  Ki: 7 nM
Human plasma Kallikrein [6]
  Ki: 5 nM
Human plasma Kallikrein [7]
  Ki: 0.49 nM

## Ac-CSW[Aze][Abu][Phe(4-guanidino)]CLHQDLC-NH2 (linker 1-7-13 via TBMB) [Ac-(06-34-18) Aze3 Aba4 4GuanPhe5]
Human plasma Kallikrein [8]
  Ki: 0.2 nM

B5: Ac-(06-34-18) Aze3 HomoArg5 (peptide)
peptide: Ac-CSW[Aze]A[hArg]CLHQDLC-NH2
modifications: linker 1-7-13 via TBMB
SMILES: CC(=O)N[C@H]1CSCc2cc3cc(c2)CSC[C@H](NC(=O)[C@H](CCCCNC(=N)N)NC(=O)[C@H](C)NC(=O)[C@@H]2CCN2C(=O)[C@H](Cc2c[nH]c4ccccc24)NC(=O)[C@H](CO)NC1=O)C(=O)N[C@@H](CC(C)C)C(=O)N[C@@H](Cc1c[nH]cn1)C(=O)N[C@@H](CCC(N)=O)C(=O)N[C@@H](CC(=O)O)C(=O)N[C@@H](CC(C)C)C(=O)N[C@H](C(N)=O)CSC3
Human plasma Kallikrein [2]
  Ki: 0.14 nM

## ACSWPARCLHQDLCA (linker 2-8-14 via TBMB; not fully specified (N-terminus, C-terminus)) [06-34-18 (01 + 05)]
Rat plasma Kallikrein [9]
  IC50: 0.56 nM
Human plasma Kallikrein [10]
  IC50: 0.07 nM
Human plasma Kallikrein [11]
  Ki: 0.04 nM

## ACAWPARCAHQDLCA (linker 2-8-14 via TBMB; not fully specified (N-terminus, C-terminus), also called R1A/V6A) [06-34-03 - Ala1,6]
Human plasma Kallikrein [11]
  Ki: 0.147 nM

## AC[Sar]WPARC[Sar]HQDLCA (linker 2-8-14 via TBMB; not fully specified (N-terminus, C-terminus), also called AC N-MeGWPARCN-MeGHQDLCA) [06-34-03 - N-MeGly1,6]
Human plasma Kallikrein [11]
  Ki: 24.8 nM

## Ac-CSW[Aze][Abu][hArg]CLHQDLC-NH2 (linker 1-7-13 via TBMB) [Ac-(06-34-18) Aze3 Aba4 HomoArg5]
Human plasma Kallikrein [8]
  Ki: 0.9 nM

B6: Ac-(06-34-18) Aze3 NMeArg5 (peptide)
peptide: Ac-CSW[Aze]A[NMeR]CLHQDLC-NH2
modifications: linker 1-7-13 via TBMB
SMILES: CC(=O)N[C@H]1CSCc2cc3cc(c2)CSC[C@H](NC(=O)[C@H](CCCNC(=N)N)N(C)C(=O)[C@H](C)NC(=O)[C@@H]2CCN2C(=O)[C@H](Cc2c[nH]c4ccccc24)NC(=O)[C@H](CO)NC1=O)C(=O)N[C@@H](CC(C)C)C(=O)N[C@@H](Cc1c[nH]cn1)C(=O)N[C@@H](CCC(N)=O)C(=O)N[C@@H](CC(=O)O)C(=O)N[C@@H](CC(C)C)C(=O)N[C@H](C(N)=O)CSC3
Human plasma Kallikrein [2]
  Ki: 1.3 nM

B7: Ac-(06-34-18) NMeArg5 (peptide)
peptide: Ac-CSWPA[NMeR]CLHQDLC-NH2
modifications: linker 1-7-13 via TBMB
SMILES: CC(=O)N[C@H]1CSCc2cc3cc(c2)CSC[C@H](NC(=O)[C@H](CCCNC(=N)N)N(C)C(=O)[C@H](C)NC(=O)[C@@H]2CCCN2C(=O)[C@H](Cc2c[nH]c4ccccc24)NC(=O)[C@H](CO)NC1=O)C(=O)N[C@@H](CC(C)C)C(=O)N[C@@H](Cc1c[nH]cn1)C(=O)N[C@@H](CCC(N)=O)C(=O)N[C@@H](CC(=O)O)C(=O)N[C@@H](CC(C)C)C(=O)N[C@H](C(N)=O)CSC3
Rat plasma Kallikrein [1]
  IC50: 98 nM
Human plasma Kallikrein [2]
  Ki: 3.5 nM
Human plasma Kallikrein [3]
  fold reduction in affinity against wildtype peptide: 20 fold
Human plasma Kallikrein [12]
  Ki: 3.5 nM

B8: Ac-(06-34-18) Cys2ToPen2 (peptide)
peptide: Ac-CSWPAR[Pen]LHQDLC-NH2
modifications: linker 1-7-13 via TBMB
SMILES: CC(=O)N[C@H]1CSCc2cc3cc(c2)CSC(C)(C)[C@H](NC(=O)[C@H](CCCNC(=N)N)NC(=O)[C@H](C)NC(=O)[C@@H]2CCCN2C(=O)[C@H](Cc2c[nH]c4ccccc24)NC(=O)[C@H](CO)NC1=O)C(=O)N[C@@H](CC(C)C)C(=O)N[C@@H](Cc1c[nH]cn1)C(=O)N[C@@H](CCC(N)=O)C(=O)N[C@@H](CC(=O)O)C(=O)N[C@@H](CC(C)C)C(=O)N[C@H](C(N)=O)CSC3
Human plasma Kallikrein [13]
  Ki: 2160 nM

B9: Ac-(06-34-18) 4GuanPhe5 (peptide)
peptide: Ac-CSWPA[Phe(4-guanidino)]CLHQDLC-NH2
modifications: linker 1-7-13 via TBMB
SMILES: CC(=O)N[C@H]1CSCc2cc3cc(c2)CSC[C@H](NC(=O)[C@H](Cc2ccc(NC(=N)N)cc2)NC(=O)[C@H](C)NC(=O)[C@@H]2CCCN2C(=O)[C@H](Cc2c[nH]c4ccccc24)NC(=O)[C@H](CO)NC1=O)C(=O)N[C@@H](CC(C)C)C(=O)N[C@@H](Cc1c[nH]cn1)C(=O)N[C@@H](CCC(N)=O)C(=O)N[C@@H](CC(=O)O)C(=O)N[C@@H](CC(C)C)C(=O)N[C@H](C(N)=O)CSC3
Rat plasma Kallikrein [1]
  IC50: 21 nM
Human plasma Kallikrein [2]
  Ki: 0.34 nM
Human plasma Kallikrein [14]
  Ki: 0.3 nM

## AC[NMeS]WPARCLHQDLCA (linker 2-8-14 via TBMB; not fully specified (N-terminus, C-terminus)) [06-34-18 -N-MeSer1]
Human plasma Kallikrein [3]
  fold loss in potency against the parent: 10 fold
Human plasma Kallikrein [11]
  Ki: 0.56 nM

## Ac-CSW[Aze][Abu][NMeR]CLHQDLC-NH2 (linker 1-7-13 via TBMB) [Ac-(06-34-18) Aze3 Aba4 NMeArg5]
Human plasma Kallikrein [8]
  Ki: 2.8 nM
